Experimental data from ChEMBL document CHEMBL1142160, “Overexpression and initial characterization of the chromosomal aminoglycoside 3'-O-phosphotransferase APH(3')-IIb from Pseudomonas aeruginosa” (2007).

Experiments:
[1] = substrate: NC[C@H]1O[C@H](O[C@H]2[C@H](O[C@@H]3O[C@H](CO)[C@@H](O)[C@H]3O)[C@@H](O)[C@H](N)C[C@@H]2N)[C@H](N)[C@@H](O)[C@@H]1O; assay: (§1) Ratio of kcat to km for PH(3')-2b activity; conditions: Pseudomonas aeruginosa
[2] = substrate: NC[C@H]1O[C@H](O[C@H]2[C@H](O)[C@@H](O)[C@H](N)C[C@@H]2N)[C@H](N)[C@@H](O)[C@@H]1O; assay: as §1; conditions: Pseudomonas aeruginosa
[3] = substrate: NCC[C@H](O)C(=O)N[C@@H]1C[C@H](N)[C@@H](O[C@H]2O[C@H](CN)[C@@H](O)[C@H](O)[C@H]2O)[C@H](O)[C@H]1O[C@H]1O[C@H](CO)[C@@H](O)[C@H](N)[C@H]1O; assay: as §1; conditions: Pseudomonas aeruginosa
[4] = substrate: NC[C@@H]1O[C@@H](O[C@H]2[C@H](O)[C@@H](O[C@H]3O[C@H](CO)[C@@H](O)[C@H](N)[C@H]3O)[C@H](N)C[C@@H]2N)[C@@H](O)[C@H](O)[C@H]1O; assay: as §1; conditions: Pseudomonas aeruginosa
[5] = substrate: NC[C@@H]1O[C@H](O[C@H]2[C@@H](O)[C@H](O[C@@H]3[C@@H](O)[C@H](N)C[C@H](N)[C@H]3O[C@H]3O[C@H](CN)[C@@H](O)[C@H](O)[C@H]3N)O[C@@H]2CO)[C@H](N)[C@@H](O)[C@@H]1O; assay: as §1; conditions: Pseudomonas aeruginosa
[6] = substrate: NC[C@H]1O[C@H](O[C@H]2[C@H](O[C@@H]3O[C@H](CO)[C@@H](O)[C@H]3O)[C@@H](O)[C@H](N)C[C@@H]2N)[C@H](N)[C@@H](O)[C@@H]1O; assay: (§2) Activity against Pseudomonas aeruginosa APH(3')-2b expressed in Escherichia coli BL21(DE3) assessed as phosphorylation
[7] = substrate: NC[C@H]1O[C@H](O[C@H]2[C@H](O)[C@@H](O)[C@H](N)C[C@@H]2N)[C@H](N)[C@@H](O)[C@@H]1O; assay: as §2
[8] = substrate: NCC[C@H](O)C(=O)N[C@@H]1C[C@H](N)[C@@H](O[C@H]2O[C@H](CN)[C@@H](O)[C@H](O)[C@H]2O)[C@H](O)[C@H]1O[C@H]1O[C@H](CO)[C@@H](O)[C@H](N)[C@H]1O; assay: as §2
[9] = substrate: NC[C@@H]1O[C@@H](O[C@H]2[C@H](O)[C@@H](O[C@H]3O[C@H](CO)[C@@H](O)[C@H](N)[C@H]3O)[C@H](N)C[C@@H]2N)[C@@H](O)[C@H](O)[C@H]1O; assay: as §2
[10] = substrate: NC[C@@H]1O[C@H](O[C@H]2[C@@H](O)[C@H](O[C@@H]3[C@@H](O)[C@H](N)C[C@H](N)[C@H]3O[C@H]3O[C@H](CN)[C@@H](O)[C@H](O)[C@H]3N)O[C@@H]2CO)[C@H](N)[C@@H](O)[C@@H]1O; assay: as §2

B1: Aminoglycoside 3'-phosphotransferase type IIb (Pseudomonas aeruginosa (strain ATCC 15692 / PAO1 / 1C / PRS 101 / LMG12228)), Q9HWR2 (protein)
chain: MHDAATSMPPQAPSTWADYLAGYRWRGQGEGCSAATVHRLEAARRPTLFVKQEVLSAHAELPAEIARLRWLHGAGIDCPQVLNETQSDGRQWLLMSAVPGDTLSALAQRGELEPERLVRLVAAALRRLHDLDPAACPFDHRLERRLDTVRQRVEAGLVDEADFDDDHRGRSATELYRLLLDRRPAVEDLVVAHGDACLPNLLAEGRRFSGFIDCGRLGVADRHQDLALAARDIEAELGAAWAEAFLVEYGGDIDGERLAYFRLLDEFF
Q: B1 was tested. Which kcat/Km [1] did it give?
A: The kcat/Km was 190000 M⁻¹ s⁻¹.

Q: What about the kcat/Km [2] of the same protein?
A: Its kcat/Km is 170000 M⁻¹ s⁻¹.

Q: What about the kcat/Km [3] of the same protein?
A: Its kcat/Km is 400000 M⁻¹ s⁻¹.

Q: And the kcat/Km [4]?
A: Its kcat/Km is 360000 M⁻¹ s⁻¹.

Q: What about the kcat/Km [5] of the same protein?
A: Its kcat/Km is 120000 M⁻¹ s⁻¹.

Q: And the Km [6]?
A: The Km was 10 µM.

Q: What about the Km [7] of the same protein?
A: The Km was 10.3 µM.

Q: And the Km [8]?
A: Its Km is 440 µM.

Q: What about the Km [9] of the same protein?
A: The Km was 3.1 µM.

Q: And the Km [10]?
A: The Km was 17.5 µM.
